Experimental data published in patent US20230235073A1.

Tests used:
[1] = molecular target: human CD36 recombinant protein (Sino Biological, reference 10752-H08H) (human) (UniProt P16671); experiment: SPR Biacore T200, antibody captured on anti-mouse IgA, CD36 analyte, 2-state model
[2] = molecular target: mouse CD36 recombinant protein (Sino Biological, reference 50422-M08H) (mouse) (UniProt Q08857); experiment: ELISA, plate coated with mouse CD36, OD630, panel 'Coating: mouse CD36'
[3] = molecular target: human CD36 on cells overexpressing human CD36 (human) (UniProt P16671); experiment: FACS on cells overexpressing human CD36, % of Binding
[4] = molecular target: human CD36 recombinant protein (Sino Biological, reference 10752-H08H) (human) (UniProt P16671); experiment: SPR Biacore T200, antibody captured on anti-mouse IgA, CD36 analyte 3.3-333 nM, 1-to-1 model
[5] = molecular target: human CD36 recombinant protein (Sino Biological, reference 10752-H08H) (human) (UniProt P16671); experiment: SPR Biacore T200, antibody captured on anti-mouse IgA, CD36 analyte, bivalent model
[6] = molecular target: human CD36 recombinant protein (Sino Biological, reference 10752-H08H) (human) (UniProt P16671); experiment: ELISA, plate coated with human CD36, OD630, panel 'Coating: human CD36'

human CD36 recombinant protein (Sino Biological, reference 10752-H08H) (human), sequence (P16671 30-439 limits assumed): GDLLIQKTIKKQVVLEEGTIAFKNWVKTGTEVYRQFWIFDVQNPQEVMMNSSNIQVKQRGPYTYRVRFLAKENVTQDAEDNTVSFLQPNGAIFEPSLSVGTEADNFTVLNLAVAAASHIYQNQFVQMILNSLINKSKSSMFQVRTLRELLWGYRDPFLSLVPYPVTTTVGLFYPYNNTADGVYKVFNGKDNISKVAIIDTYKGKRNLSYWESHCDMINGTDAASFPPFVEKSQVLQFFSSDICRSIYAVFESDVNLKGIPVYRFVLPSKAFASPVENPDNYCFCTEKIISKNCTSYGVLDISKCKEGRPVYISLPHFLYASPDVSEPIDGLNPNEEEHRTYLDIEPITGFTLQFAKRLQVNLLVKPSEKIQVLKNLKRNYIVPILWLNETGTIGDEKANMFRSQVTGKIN
mouse CD36 recombinant protein (Sino Biological, reference 50422-M08H) (mouse), sequence (Q08857 30-439 limits assumed, stated change not applied): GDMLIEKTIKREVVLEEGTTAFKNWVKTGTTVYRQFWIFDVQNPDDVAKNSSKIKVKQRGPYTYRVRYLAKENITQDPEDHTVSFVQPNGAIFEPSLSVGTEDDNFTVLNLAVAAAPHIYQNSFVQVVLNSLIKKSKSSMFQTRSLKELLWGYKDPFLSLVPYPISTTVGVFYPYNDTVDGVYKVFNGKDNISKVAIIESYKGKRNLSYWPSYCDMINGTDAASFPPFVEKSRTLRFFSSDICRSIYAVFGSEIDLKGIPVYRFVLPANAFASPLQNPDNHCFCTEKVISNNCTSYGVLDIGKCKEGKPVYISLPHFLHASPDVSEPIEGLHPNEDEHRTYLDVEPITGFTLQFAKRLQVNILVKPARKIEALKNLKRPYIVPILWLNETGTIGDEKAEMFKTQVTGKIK
human CD36 on cells overexpressing human CD36 (human), sequence (P16671 2-472 limits assumed): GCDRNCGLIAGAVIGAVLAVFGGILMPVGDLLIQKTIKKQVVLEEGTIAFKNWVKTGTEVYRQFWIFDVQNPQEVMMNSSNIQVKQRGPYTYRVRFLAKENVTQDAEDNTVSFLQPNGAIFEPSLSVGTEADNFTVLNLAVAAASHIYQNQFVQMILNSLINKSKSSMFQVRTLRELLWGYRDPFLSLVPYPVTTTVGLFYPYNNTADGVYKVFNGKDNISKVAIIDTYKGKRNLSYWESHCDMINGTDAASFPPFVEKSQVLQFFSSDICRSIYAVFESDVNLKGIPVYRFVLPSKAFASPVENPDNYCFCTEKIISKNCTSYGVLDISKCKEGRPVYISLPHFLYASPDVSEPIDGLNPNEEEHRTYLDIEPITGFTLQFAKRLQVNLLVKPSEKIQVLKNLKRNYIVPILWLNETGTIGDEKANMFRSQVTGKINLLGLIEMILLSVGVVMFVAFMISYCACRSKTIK

Kd [1]: 7.61 nM | ka1 [1]: 86900 M⁻¹ s⁻¹ | ka2 [1]: 0.000572 s⁻¹ | kd1 [1]: 0.0018 s⁻¹ | kd2 [1]: 0.000332 s⁻¹ | EC50 (read off the curve) [2]: 1 nM | EC50 (read off the curve) [3]: 0.03 nM | Kd [4]: 4.71 nM | koff [4]: 0.00196 s⁻¹ | kon [4]: 418000 M⁻¹ s⁻¹ | KD1 [5]: 76.5 nM | KD2 [5]: 956 nM | ka1 [5]: 27200 M⁻¹ s⁻¹ | ka1 (second column so headed) [5]: 413 M⁻¹ s⁻¹ | ka2 [5]: 5.5e-05 1/RUs | kd1 [5]: 0.00206 s⁻¹ | kd2 [5]: 0.000399 s⁻¹ | EC50 (read off the curve) [6]: 1 to 2 nM
Substance: commercial neutralizing monoclonal anti-CD36 antibody JC63.1 (CAYMAN, CAY-10009893-500)
